The values below come from article doi:10.1101/2020.01.12.903617, “The peptide sensor motif stabilizes the outward-facing conformation of TmrAB” (bioRxiv, 2020).

One experiment has as its target T1, TmrAB G131A^TmrA (Thermus thermophilus, UniProt Q72J05 1-600; Q72J04 1-578, G131A).
T1 construct: TmrA, Thermus thermophilus, the chain of TmrAB with the canonical Walker B motif; TmrB, Thermus thermophilus, the chain of TmrAB with the non-canonical Walker B motif; also called G131A^TmrA variant; source: cultured at room temperature for 16 hours after induction
T1 sequence 1: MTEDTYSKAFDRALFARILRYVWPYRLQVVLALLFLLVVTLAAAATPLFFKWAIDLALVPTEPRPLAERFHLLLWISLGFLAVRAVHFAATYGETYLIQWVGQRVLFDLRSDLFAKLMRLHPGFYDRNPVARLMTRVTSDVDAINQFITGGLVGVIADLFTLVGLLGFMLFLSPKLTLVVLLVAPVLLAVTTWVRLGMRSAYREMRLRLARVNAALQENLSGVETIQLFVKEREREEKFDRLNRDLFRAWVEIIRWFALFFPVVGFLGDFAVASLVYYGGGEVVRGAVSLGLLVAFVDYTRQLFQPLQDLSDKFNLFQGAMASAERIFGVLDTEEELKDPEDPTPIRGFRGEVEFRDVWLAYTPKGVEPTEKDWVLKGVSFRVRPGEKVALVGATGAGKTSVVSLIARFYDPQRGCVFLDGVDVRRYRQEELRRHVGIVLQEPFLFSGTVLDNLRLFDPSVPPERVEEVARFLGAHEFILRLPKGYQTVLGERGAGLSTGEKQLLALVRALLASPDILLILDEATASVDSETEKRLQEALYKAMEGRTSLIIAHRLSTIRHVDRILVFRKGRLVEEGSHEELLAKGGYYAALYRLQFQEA
T1 sequence 2: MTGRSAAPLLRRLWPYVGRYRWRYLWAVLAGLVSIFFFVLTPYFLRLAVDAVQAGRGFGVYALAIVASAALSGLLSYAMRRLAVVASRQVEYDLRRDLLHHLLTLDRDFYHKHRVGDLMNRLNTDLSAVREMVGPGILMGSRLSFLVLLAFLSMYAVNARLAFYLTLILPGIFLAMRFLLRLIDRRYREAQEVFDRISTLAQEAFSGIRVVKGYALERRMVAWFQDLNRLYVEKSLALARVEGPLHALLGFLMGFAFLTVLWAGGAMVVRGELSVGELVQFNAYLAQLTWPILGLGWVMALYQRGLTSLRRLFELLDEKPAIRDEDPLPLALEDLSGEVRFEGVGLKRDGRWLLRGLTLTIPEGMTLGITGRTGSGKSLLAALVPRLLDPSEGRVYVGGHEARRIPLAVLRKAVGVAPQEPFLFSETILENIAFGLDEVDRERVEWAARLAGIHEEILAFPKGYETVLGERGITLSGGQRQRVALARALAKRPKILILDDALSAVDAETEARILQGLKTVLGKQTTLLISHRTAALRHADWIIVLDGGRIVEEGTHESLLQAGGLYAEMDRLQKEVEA
Kind of experiment: fluorescence polarisation; 1.7 uM TmrAB with 50 nM RRY(C^Fluorescein)KSTEL in SEC buffer (20 mM HEPES, 150 mM NaCl, pH 7, 0.05% ß-DDM), 15 minutes on ice, in the absence or presence of 5 mM ATP and 10 mM MgCl2; read at 25°C (the results say 4°C); signal normalized to WT without ATP. Conditions: both partners purified. (Fluorescence polarisation rises when a labelled molecule tumbles more slowly, as on binding a larger partner.)

Experiment [1] has as its target T2, WT TmrAB, heterodimeric peptide exporter from Thermus thermophilus (Thermus thermophilus, UniProt Q72J05 1-600; Q72J04 1-578).
T2 construct: TmrA, Thermus thermophilus, the chain of TmrAB with the canonical Walker B motif; TmrB, Thermus thermophilus, the chain of TmrAB with the non-canonical Walker B motif; TmrAB template in pet22b; also called wild-type TmrAB
T2 sequence 1: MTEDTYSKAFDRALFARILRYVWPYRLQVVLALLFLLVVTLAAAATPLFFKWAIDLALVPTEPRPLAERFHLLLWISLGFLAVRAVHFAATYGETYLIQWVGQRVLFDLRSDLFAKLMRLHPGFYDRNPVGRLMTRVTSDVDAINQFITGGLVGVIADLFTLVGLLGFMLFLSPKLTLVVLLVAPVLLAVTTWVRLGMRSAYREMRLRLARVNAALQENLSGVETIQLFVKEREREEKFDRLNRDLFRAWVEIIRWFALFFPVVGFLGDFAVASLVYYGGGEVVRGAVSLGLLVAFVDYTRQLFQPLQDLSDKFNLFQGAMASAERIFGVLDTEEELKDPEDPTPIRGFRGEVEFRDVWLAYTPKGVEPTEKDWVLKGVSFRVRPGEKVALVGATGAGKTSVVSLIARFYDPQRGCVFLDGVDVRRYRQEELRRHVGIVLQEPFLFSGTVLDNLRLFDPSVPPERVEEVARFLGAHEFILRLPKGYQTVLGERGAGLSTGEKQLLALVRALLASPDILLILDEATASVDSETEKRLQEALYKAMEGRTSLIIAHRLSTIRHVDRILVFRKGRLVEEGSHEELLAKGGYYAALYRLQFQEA
T2 sequence 2: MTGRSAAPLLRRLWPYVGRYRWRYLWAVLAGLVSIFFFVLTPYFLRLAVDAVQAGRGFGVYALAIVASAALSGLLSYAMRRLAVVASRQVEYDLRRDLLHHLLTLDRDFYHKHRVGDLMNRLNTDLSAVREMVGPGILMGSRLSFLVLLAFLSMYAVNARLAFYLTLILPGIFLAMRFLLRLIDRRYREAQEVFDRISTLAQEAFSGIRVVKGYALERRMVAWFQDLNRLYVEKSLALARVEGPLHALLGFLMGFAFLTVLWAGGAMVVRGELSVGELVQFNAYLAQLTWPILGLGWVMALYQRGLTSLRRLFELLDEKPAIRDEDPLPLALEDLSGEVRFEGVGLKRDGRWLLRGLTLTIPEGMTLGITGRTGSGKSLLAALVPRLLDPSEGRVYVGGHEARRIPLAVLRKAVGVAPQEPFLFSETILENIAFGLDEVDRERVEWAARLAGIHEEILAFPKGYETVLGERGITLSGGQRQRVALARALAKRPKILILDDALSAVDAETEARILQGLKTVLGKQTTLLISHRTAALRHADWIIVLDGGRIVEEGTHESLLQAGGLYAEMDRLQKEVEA
Described as above. Conditions: both partners purified.

No end group written: not given here. fluorescein = fluorescein label attached to the Cys side chain

B1: fluorescent transport substrate peptide RRY(C^Fluorescein)KSTEL (peptide)
peptide: RRYC(fluorescein)KSTEL
notes: fluorescein-labelled transport substrate peptide of TmrAB; also called fluorescently-labeled peptide substrate; peptide substrate; source: bought: Genscript
On to B1, for which the binding result (with TmrAB G131A^TmrA; in experiment [1]) was “binds” throughout.
